Results taken from patent US20200199204A1 (UNITED STATES OF AMERICA AS REPRESENTED BY THE SECRETARY …, published 2020).

Key:
Assay in all cases: cell-based or functional assay
[1] = biological target: HIV-1 Env of MB539.2B7 (HIV-1)
[2] = biological target: HIV-1 Env of RHPA.7 (HIV-1)
[3] = biological target: HIV-1 Env of DU172.17 (HIV-1)
[4] = biological target: HIV-1 Env of CNE3 (HIV-1)
[5] = biological target: HIV-1 Env of 191821.E6.1 (HIV-1)
[6] = biological target: HIV-1 Env of ZM249.1 (HIV-1)
[7] = biological target: HIV-1 Env of WITO.33 (HIV-1)
[8] = biological target: HIV-1 Env of RW020.2 (HIV-1)
[9] = biological target: HIV-1 Env of ZM197.7 (HIV-1)
[10] = biological target: HIV-1 Env of ZM53.12 (HIV-1)
[11] = biological target: HIV-1 Env of ZM109.4 (HIV-1)
[12] = biological target: HIV-1 Env of BG505.w6m (HIV-1)
[13] = biological target: HIV-1 Env of 6535.3 (HIV-1)
[14] = biological target: HIV-1 Env of CAP244.D3 (HIV-1)
[15] = biological target: HIV-1 Env of AC10.29 (HIV-1)
[16] = biological target: HIV-1 Env of REJO.67 (HIV-1)
[17] = biological target: HIV-1 Env of TRJO.58 (HIV-1)
[18] = biological target: HIV-1 Env of Q769.d22 (HIV-1)
[19] = biological target: HIV-1 Env of Q461.e2 (HIV-1)
[20] = biological target: HIV-1 Env of CAAN.A2 (HIV-1)
[21] = biological target: HIV-1 Env of KER2008.12 (HIV-1)
[22] = biological target: HIV-1 Env of Q168.a2 (HIV-1)
[23] = biological target: HIV-1 Env of MB201 (HIV-1)
[24] = biological target: HIV-1 Env of DU156.12 (HIV-1)
[25] = biological target: HIV-1 Env of CM244.ec1 (HIV-1)
[26] = biological target: HIV-1 Env of CAP210.E8 (HIV-1)
[27] = biological target: HIV-1 Env of TH976.17 (HIV-1)
[28] = biological target: HIV-1 Env of C1080.c3 (HIV-1)
[29] = biological target: HIV-1 Env of Q259.d2.17 (HIV-1)
[30] = biological target: HIV-1 Env of TRO.11 (HIV-1)
[31] = biological target: HIV-1 Env of 6405.v4.c34 (HIV-1)
[32] = biological target: HIV-1 Env of DU422.01 (HIV-1)
[33] = biological target: HIV-1 Env of 3016.V5.c36 (HIV-1)
[34] = biological target: HIV-1 Env of QH0692.42 (HIV-1)
[35] = biological target: HIV-1 Env of UG037.8 (HIV-1)
[36] = biological target: HIV-1 Env of ZM233.6 (HIV-1)
[37] = biological target: HIV-1 Env of 96ZM651.02 (HIV-1)
[38] = biological target: HIV-1 Env of PVO.04 (HIV-1)
[39] = biological target: HIV-1 Env of ZM135.10a (HIV-1)
[40] = biological target: HIV-1 Env of ZM214.15 (HIV-1)
[41] = biological target: HIV-1 Env of CAP256.SU (HIV-1)
[42] = biological target: HIV-1 Env of Q842.d12 (HIV-1)
[43] = biological target: HIV-1 Env of CAP45.G3 (HIV-1)
[44] = biological target: HIV-1 Env of CAP256.PI (HIV-1)
[45] = biological target: HIV-1 Env of KER2018.11 (HIV-1)
[46] = biological target: HIV-1 Env of THRO.18 (HIV-1)
[47] = biological target: HIV-1 Env of SC422.8 (HIV-1)
[48] = biological target: HIV-1 Env of 0260.v5.c36 (HIV-1)
[49] = biological target: HIV-1 Env of Q23.17 (HIV-1)

B1: CAP256-VRC26.02 (antibody, V domains shown)
VH: EVQLVESGGGVVQPGRSLRLSCAASQFSFGNYGMHWVRQAPGKGLEWVAAISFAGTKTNYADSVKGRFTISRDNSKNTVYLQMNSLRAEDTALYFCAKDIREYECEYWTSDYYDFGRPQPCIDSRGVVGTFDVWGQGTMVTVSS
VL: QSVLTQPPSVSAAPGQKVTISCSGSNSNIGNKDVSWYQQIPATAPKLLIYENNKRPSGISDRFSGSKSGTSATLAITGLQTGDEADYYCATWDGRVSVIGTGTNVIVLG
[1]
  neutralization IC50: > 50 µg/mL
[2]
  neutralization IC50: > 50 µg/mL
[3]
  neutralization IC50: > 50 µg/mL
[4]
  neutralization IC50: > 50 µg/mL
[5]
  neutralization IC50: > 50 µg/mL
[6]
  neutralization IC50: > 50 µg/mL
[7]
  neutralization IC50: > 50 µg/mL
[8]
  neutralization IC50: > 50 µg/mL
[9]
  neutralization IC50: 1.97 µg/mL
[10]
  neutralization IC50: 0.043 µg/mL
[11]
  neutralization IC50: > 50 µg/mL
[12]
  neutralization IC50: > 50 µg/mL
[13]
  neutralization IC50: > 50 µg/mL
[14]
  neutralization IC50: > 50 µg/mL
[15]
  neutralization IC50: > 50 µg/mL
[16]
  neutralization IC50: > 50 µg/mL
[17]
  neutralization IC50: > 50 µg/mL
[18]
  neutralization IC50: > 50 µg/mL
[19]
  neutralization IC50: > 50 µg/mL
[20]
  neutralization IC50: > 50 µg/mL
[21]
  neutralization IC50: > 50 µg/mL
[22]
  neutralization IC50: > 50 µg/mL
[23]
  neutralization IC50: > 50 µg/mL
[24]
  neutralization IC50: > 50 µg/mL
[25]
  neutralization IC50: 2.03 µg/mL
[26]
  neutralization IC50: 0.062 µg/mL
[27]
  neutralization IC50: > 50 µg/mL
[28]
  neutralization IC50: > 50 µg/mL
[29]
  neutralization IC50: > 50 µg/mL
[30]
  neutralization IC50: > 50 µg/mL
[31]
  neutralization IC50: > 50 µg/mL
[32]
  neutralization IC50: > 50 µg/mL
[33]
  neutralization IC50: 0.057 µg/mL
[34]
  neutralization IC50: > 50 µg/mL
[35]
  neutralization IC50: > 50 µg/mL
[36]
  neutralization IC50: 0.701 µg/mL
[37]
  neutralization IC50: > 50 µg/mL
[38]
  neutralization IC50: 7.98 µg/mL
[39]
  neutralization IC50: > 50 µg/mL
[40]
  neutralization IC50: > 50 µg/mL
[41]
  neutralization IC50: 0.015 µg/mL
[42]
  neutralization IC50: > 50 µg/mL
[43]
  neutralization IC50: > 50 µg/mL
[44]
  neutralization IC50: > 50 µg/mL
[45]
  neutralization IC50: 0.18 µg/mL
[46]
  neutralization IC50: > 50 µg/mL
[47]
  neutralization IC50: > 50 µg/mL
[48]
  neutralization IC50: > 50 µg/mL
[49]
  neutralization IC50: > 50 µg/mL
